Data taken from patent US20190002534A1 (UNIVERSITY OF MASSACHUSETTS, published 2019).

B1: anti-rabies virus human monoclonal antibody 2B10 (antibody, V domains shown)
VH: EVQLVQSGGGLVHPGGSLRLSCAGSGFTFSYFAMHWVRQAPGKGLEWVSTIGTGGGTYYADSVKGRFTISRDNAKNSLYLQMNSLRAEDMAVYYCARDNALRSFDWLFYSFDYWGQGTLVTVSS
VL: EIVLTQSPGTLSLSPGERATLSCRASQSISSSYLAWYQQKPGQAPRLLIYGASSRATGIPDRFSGSGSGTDFTLTISRLEPEDFAVYYCQRYGSSYTFGQGTKLEIK
B2: anti-rabies virus human monoclonal antibody 17C7 (antibody, V domains shown)
VH: QVQLVESGGGVVQPGRSLRLSCAASGFTFSTYAMHWVRQAPGKGLEWVAVVSYDGRTKDYADSVKGRFTISRDNSKNTLYLQMNSLRTEDTAVYFCARERFSGAYFDYWGQGTLVTVSS
VL: EIVLTQSPATLSLSPGERATLSCRASQSVSSYLAWYQQKPGQAPRLLIYDASNRATGIPARFSGSGSGTDFTLTISSLEPEDFAVYSCQQRNNWPPTFGGGTKVEIK

How the values were obtained:
[1] = biological target: T1, G glycoprotein of rabies virus street isolate DR Brazil (rabies virus, isolate DR Brazil …); experiment: cell-based or functional assay
[2] = biological target: T1, G glycoprotein of rabies virus street …; experiment: cell-based or functional assay; remark: listed apart in the source

Row | Binder | EC50 neutralization by RFFIT (Test A) [1] | EC50 neutralization by RFFIT [2]
1 | B1 | 0.004 µg/mL | 4 ng/mL
2 | B2 | 0.222 µg/mL | 222 ng/mL
